For test [1], the target named is mouse IL-13 (purchased from sino biological) (mouse) (UniProt P20109). The test is described as follows: ELISA, mouse IL-13; antibody at 0.53 nM. (ELISA stands for enzyme-linked immunosorbent assay.)
The target in test [2] is cynomolgus IL-13 (purchased from sino biological) (cynomolgus) (UniProt Q0PW92). The test is described as follows: ELISA, cynomolgus IL-13; antibody at 0.004 nM.
Test [3] concerns the target mouse IL-13 (purchased from sino biological) (mouse) (UniProt P20109). The test is described as follows: ELISA, mouse IL-13; antibody at 2.67 nM.
For test [4] the target is unchanged. The test is described as follows: ELISA, mouse IL-13; antibody at 0.004 nM.
The target is the same in test [5]. Put plainly: ELISA, mouse IL-13; antibody at 0.11 nM.
The target of test [6] is cynomolgus IL-13 (purchased from sino biological) (cynomolgus) (UniProt Q0PW92). The test is described as follows: ELISA, cynomolgus IL-13; antibody at 0.53 nM.
The target in test [7] is mouse IL-13 (purchased from sino biological) (mouse) (UniProt P20109). The test is described as follows: ELISA, mouse IL-13; antibody at 0.021 nM.
The target of test [8] is cynomolgus IL-13 (purchased from sino biological) (cynomolgus) (UniProt Q0PW92). Put plainly: ELISA, cynomolgus IL-13; antibody at 0.021 nM.
Test [9] has as its target mouse IL-13 (purchased from sino biological) (mouse) (UniProt P20109). Put plainly: ELISA, mouse IL-13; antibody at 0.000 nM.
Test [10] has the same target. The test is described as follows: ELISA, mouse IL-13; antibody at 0.001 nM.
Test [11] concerns the target cynomolgus IL-13 (purchased from sino biological) (cynomolgus) (UniProt Q0PW92). Put plainly: ELISA, cynomolgus IL-13; antibody at 2.67 nM.
In test [12] the target is T1, mouse IL-13 (purchased from sino biological) (mouse, UniProt P20109 19-131).
T1 chain: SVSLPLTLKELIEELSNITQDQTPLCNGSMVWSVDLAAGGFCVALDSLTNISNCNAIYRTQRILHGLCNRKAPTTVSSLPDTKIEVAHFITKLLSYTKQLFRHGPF
Put plainly: ELISA, mouse IL-13; antibody at 0.021 nM.

Test [13] concerns the target T1, mouse IL-13 (purchased from sino …). The test is described as follows: ELISA, mouse IL-13; antibody at 13.33 nM.
Test [14] deals with cynomolgus IL-13 (purchased from sino biological) (cynomolgus) (UniProt Q0PW92). Put plainly: ELISA, cynomolgus IL-13; antibody at 333.3 nM.

Chain of cynomolgus IL-13 (purchased from sino biological) (cynomolgus) (Q0PW92 entry or part of it): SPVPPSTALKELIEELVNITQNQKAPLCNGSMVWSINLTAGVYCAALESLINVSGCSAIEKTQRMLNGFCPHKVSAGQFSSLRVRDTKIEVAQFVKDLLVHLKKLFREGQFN

For IgG control (mouse IgG) (antibody), the OD450 nm in test [1] was found to be 0.08; in test [2], 0.061; in test [3], 0.08; in test [4] it was 0.07; in [5] it was 0.08; in test [6], 0.08. Moreover, the OD450 nm is 0.07 in test [7]; 0.068 in test [8]; 0.1 in [9]; 0.07 in test [10]; 0.1 in test [11].

B1: 29D9H8 (lead antibody, mouse hybridoma) (antibody, V domains shown)
VH: QVQLQQSGAELVRPGASVTLSCKASGYTFTDYEMHWVKQTPVHGLEWIGGIDPETGGTASNQKFKGKAILTADKSSSTAYMELRSLTSEDSAVYYCTSGDYFGGGPFAYWGQGTLVTVSA
VL: DIKMTQSPSSMYASLGERVTITCKASQDINSYLSWFQQKPGKSPKTLIYRANRLVDGVPSRFSGSGSGQDYSLTISSLDYEDMGIYYCLQYDEFPYTFGGGTKLEIK
notes: Mouse monoclonal antibody purified from hybridoma supernatant on Protein G
As to B1, the figures for the OD450 nm in test [12] and in test [13] were 0.06 and 0.09, respectively.

B2: c29D9H8 (mouse-human chimeric IL-13 antibody) (antibody, V domains shown)
VH: QVQLQQSGAELVRPGASVTLSCKASGYTFTDYEMHWVKQTPVHGLEWIGGIDPETGGTASNQKFKGKAILTADKSSSTAYMELRSLTSEDSAVYYCTSGDYFGGGPFAYWGQGTLVTVSA
VL: DIKMTQSPSSMYASLGERVTITCKASQDINSYLSWFQQKPGKSPKTLIYRANRLVDGVPSRFSGSGSGQDYSLTISSLDYEDMGIYYCLQYDEFPYTFGGGTKLEIK
Take B2: the OD450 nm in [14] is 3.7.

B3: 28A2E11 (lead antibody, mouse hybridoma) (antibody, V domains shown)
VH: EVQLQQSGAELVKPGASVKLSCTASGFNIKDYYMHWVKQRTEQGLEWIGRIDPEDGETKYAPKFHDKATLTADTSSNTAYLQFSSLASEDTAVYYCTRYDYYGPFAYWGQGTLVTVSA
VL: QAVVTQESVLTTSPGETVTLTCRSSTGAVTTSNYANWVQEKPDHLFTGLIGGTNNRAPGVPARFSGSLIGDKAALTITGAQTEDEAIYFCALWYINHFIFGSGTKVTVL
notes: as for B1
Turning to B3, the OD450 nm in [12] and in test [13] was 0.08 each time.

B4: c28A2E11 (mouse-human chimeric IL-13 antibody) (antibody, V domains shown)
VH: EVQLQQSGAELVKPGASVKLSCTASGFNIKDYYMHWVKQRTEQGLEWIGRIDPEDGETKYAPKFHDKATLTADTSSNTAYLQFSSLASEDTAVYYCTRYDYYGPFAYWGQGTLVTVSA
VL: QAVVTQESVLTTSPGETVTLTCRSSTGAVTTSNYANWVQEKPDHLFTGLIGGTNNRAPGVPARFSGSLIGDKAALTITGAQTEDEAIYFCALWYINHFIFGSGTKVTVL
The molecule B4 had an OD450 nm in test [14] of 3.9.

For the origin of these results see US20190309059A1 (SHANGHAI PHARMAEXPLORER, published 2019).
